The values below come from publication PMC7939140.

The target of the experiment is BG505SOSIP.664 gp140 NFL (native flexible linker version of wild type) (HIV-1 (BG505 isolate, clade A)). In words: native gel or EMSA. In general terms: Mobility shift assays separate free from complexed probe on a gel.

In the case of “BG505SOSIP.664 gp140 NFL (native flexible linker version of wild type) (natural protein)”, the stoichiometry N came out at 3.

The term stoichiometry N denotes a count of units in the complex or per binding partner.
